Data: publication PMC10338323

Target: EvdS6 (Micromonospora carbonacea var. aurantiaca)
Test: crystal structure; EvdS6 with copurified NAD+, ligand-free and TDP-bound states; hanging drop at about 25 °C; two protein chains in the asymmetric unit

Substance: EvdS6 (enzyme)
- stoichiometry N: 2
